Data published in the nanobody polyreactivity screen of Harvey et al. (2022).

assay: yeast display, Sf9 membrane polyspecificity reagent, FACS + sequencing; frameworks hold sequencing errors
Method in brief: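 A synthetic nanobody library was expressed on Saccharomyces cerevisiae BJ5465 by galactose induction for 36–48 hours. The library was stained for 1 hour at 4 °C with 10% biotinylated, detergent-solubilized Sf9 membrane reagent and enriched with streptavidin microbeads before FACS. Low and high (top ~1%) gates were set on anti-HA fluorescence for expression and streptavidin fluorescence for reagent binding, and each polyreactivity label reflects the gate of origin.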

Sequence | polyreactivity (PSR sort gate)
QVKLQESGDGLVQAGGSLRLSSAASGTIFSDYGMGGYRQAPGKERELLAGISDGCNTNYTDSVKGRFTISRDNAHRVSADEQPETGGYRGVLLRGSERWLLFFVYWGQGTQVTVSS | high polyreactivity
QVKLVASGGGLVQEGGSLRLSCAASGRIFGNYAMGWYRQAPGKERELVAAIDLSGDSTYYADSVKGRFTISRDNAKNTVYLQMNSLKPEDTAVYYCAADPDLLWEYSDGYYGGDGGYWGQGTQVTVSS | low polyreactivity
QVKLVDSGGGLVQAGGSLRLSCAASGNIFYRYAMGWYRQAPGKERELVAAISGNSGNTYYADSVKGRFTISRDNAKNTVYLQMNSLKPDDTAVYYCAAERRAFGHYSWGQGTQVTVSS | high polyreactivity
QVKLVDSGGGLVQAGGSLRLSCAASGSIFGAYAMGWYRQAHGKERELVAPITLRDGSTYYADSVKGRFTISRDNAKNTVYLQLNSLKPEDTAVYYCATYYSAINYGWSKTILYDYWGQGTQVTVSS | low polyreactivity
QVKLVESAGCLVQAGGSLRLSCAASGRIFRRYAMGWYRQSTGKESELVAAISSRGGLTYYADSVKGRFTISRDNAKNTVYLLMNSLKTEDTAVYYCAAYYFVTETYGPYEYWGQGTQVTVSS | high polyreactivity
QVKLVESCGGLVQAGGSLRLSCAASGYISSFNTKGWYRQAPGKERELVAAITRDGSTYYADSVKGRFTISRDNAKNSVYLQMNSLKPEYTAVYYCAARGWYATWLYYYWGQGSQVTVSS | high polyreactivity
QVKLVESGGALVQAGCSLRLSCAASARTFPVYAMGWYRQAPGKERELVAAIRYSAGSTYYADSVKGRFTISRDNAKITVYLQMNSLKPEDSSVSYCARTTPTGRQYRRYDYWGQGTQLTVSS | low polyreactivity
QVKLVESGGCLVQEGGSHRLSCAASGYIFDAYAMGWYRQAPGQERELVAAIDIGGSTYYADSVKGRFTISRDNAKNTVYLQMNSLKPEDTAVYYCAVWFYFDQWDYAREYWGQGTQVTVSS | low polyreactivity
QVKLVESGGCLVQSGGSLRLSCADYRSIFWNNSMGWYRQATGKEWELGAGISSAGSTNYSDSVKGRFTISRDNAKNTVYLQMNSLKPEDTAVYYCAAEQYRYGIRRRHYDYWGQGTQVTLSS | low polyreactivity
QVKLVESGGGIVQAGGSLRLSCAASGRTFGRNAMGWYRQAPGKERELVASITKRGGSTYYADSVKGRFTISRDNAKDTVYLQMNSLKPEDTAVYYCAVEAYDYWGQGTQVTVSS | high polyreactivity
QVKLVESGGGLDQAGGSLRLSCAASGSTILQTAMGGYRQAPGKARELVASISRGGSTNYADSVKGRFTISRDNAKTSVYLQMNSLKPEDTEVYFCATRSRRSASPVVYHAYYYWGQGTHVTVSS | high polyreactivity
QVKLVESGGGLVQAGASLRLSCAASGIISYGNAMGRYRQAPGKERELVASISGISGSTYYADSVKGRFTISRDNAKNTVYLQMNSLKPEDTAVYYCNARYPTYRASYHGDYWGQGTQVTVSS | low polyreactivity
QVKLVESGGGLVQAGCSLRLSCAASGFIFRSYAMGWYRQAPRKERELVAVISRRGVNTHYADSVKGRFTISRDNAKNTVYLQMNSLKPEDTAVYYCAKGLSALGDYWGQGTQVTVSS | high polyreactivity
QVKLVESGGGLVQAGGSLRFSCAASGSTFTKNARGWYRQAPGKERELVAGISRSGGNTYYADSVMGRFTISRDNSKNTVYLQLNRLKPEDTAVSYCAKVVRGIDSNLDDYWGQGTQVTVSS | high polyreactivity
QVKLVESGGGLVQAGGSLRFTCAASGRTFGSNAMGWYRQAPGKERELVAVITTSGGSTYYADSVKGRFTISRDNAKNTVYLQMISLKPEDTAVYSCAKRVATGYKSYGYGYWGQGTQVTVSS | high polyreactivity
QVKLVESGGGLVQAGGSLRLSCAASGFIFSNNAMGWYRQAPGKEMELVAAITWNGGRTYYADSVKGRFTISRDNAKNTVYLQMNSLKQVDTAVYYCAAGRYYPLFYYWGLGTQVTVSS | high polyreactivity
QVKLVESGGGLVQAGGSLRLSCAASGFTFISNAMGWYRQAPGKERELVAAISSSGGRTYYADSVKGRFTISRDNAKNTVYLQMNSLKPEDTAVYYCNADRSLLYSRKIEYDYWGQGTQVTVSS | low polyreactivity
QVKLVESGGGLVQAGGSLRLSCAASGFTIRSYFIVWNRQAPGKERELVAAITRRGGRTYYADSVKGRFTISRDNAKNTVFLQMNSLKPEDTAVYYCAAGPYLVDVDYWGQGTQVTVSS | high polyreactivity
QVKLVESGGGLVQAGGSLRLSCAASGGIFYFNPMGWYRQEPGKERELVASITWSGGNTYYADSVKGRFTISRDIAKNTVSLQMISLKPEDTAVYYCAAYYVTPIYYYWGQGTQVTVSS | low polyreactivity
QVKLVESGGGLVQAGGSLRLSCAASGIIFYPNALGWYRQAPGKERELVAAITSDGSTYYADSVKGRFTISRDNAKNTVYLQMNSLKPEDTAVYYCGAWDDYGYDYWGQGTQVTVSS | low polyreactivity
QVKLVESGGGLVQAGGSLRLSCAASGITFVLYAMRWYRQAPGKERELVASITWDATDTYYADSVKGRFTISRDNAKNTVYLQMNSLKPEDTAVYYCNAAYFNYWWLEYDYWGQGTQVTVSS | high polyreactivity
QVKLVESGGGLVQAGGSLRLSCAASGLIFIGYAMGWYRPAPGKEMELVASIRGVGSTNYADSVKGRFTISRDNAKNTVYLQMNSLKPEDTAVYYCPNSVDRALYTQTRGDYDYWGQGTQVTVSS | low polyreactivity
QVKLVESGGGLVQAGGSLRLSCAASGNILGYNAMGWYRQEPGKERELVAAITQSGGSTYYADSVKGRFTISRDNAKYSVYLQMTSLKPEDTAVYDCAVDCGPFYDPFGYWGQGTQVTVSS | low polyreactivity
QVKLVESGGGLVQAGGSLRLSCAASGRICGYYAMGWYRQAPGNERELVAAISWSGGSTYYADSVKGRFTISRDNAMNTVYLQRNSLKPEDTAVYYCNARYPNTRKYDYWGQVTQVTVSS | high polyreactivity
QVKLVESGGGLVQAGGSLRLSCAASGRTFGSYAMGRYRQAPGKERELVAAITTDASTNYADSVKGRFTISRDNAKNTIYLQMNSLKPEDTAVYYCAKRNRTYYGYWGQGTQVTVSS | low polyreactivity
QVKLVESGGGLVQAGGSLRLSCAASGRTFYIYAMGWYRQAPGKERELVAAITYGGGRTFYADSVKGRFTISRDNAKNTVYLQMNSRKPEDTAVYYCAATVRGKRSTYDYWGQGTQVTVSS | high polyreactivity
QVKLVESGGGLVQAGGSLRLSCAASGRTFYSYAMGWYRQAPGKERELVAAISAGGSTYYADSVKGRFTISRDNAKNTVYLQMTSLKPEDTAVYYCAAPVRYTYWRYPYDYWGQGTQVTVSS | high polyreactivity
QVKLVESGGGLVQAGGSLRLSCAASGSIFGGNAMGWYRQAPGKEREFVARITKRGGSTDYADSVKGRFTISRDNAKNTVYLQMNSLKPEDTAVYYCATGWTSKVHYRYGYWGQGTQVTVSS | high polyreactivity
QVKLVESGGGLVQAGGSLRLSCAASGSIFPRYAMGWYRQAPGKERELVAAITGSGSSTYYADSVKGRFTISRDNAKNTVYFQMNSLKPEDTAVYYCAARKARPPFPHPFDYYWGQGTQVTVSS | low polyreactivity
QVKLVESGGGLVQAGGSLRLSCAASGSTFLYYGMGWYRQAPGTERELVATITWRGGRTYYADSVKGRFTISRDNAKNTVYLQMNSLKPEDTAVYYCAARVVGSYRKPYPYGLYYWGQGTQVTVSS | high polyreactivity
